Measurements published in patent publication US20130272968A1 (Bayer, published 2013).
Substitutions are numbered along the chain they refer to.

T1: extracellular domain of human PRLR (soluble, monomeric, expressed in HEK293 cells) (human, UniProt P16471 25-234)
T1 construct: also called ECD-PRLR; ECD of PRLR
T1 sequence: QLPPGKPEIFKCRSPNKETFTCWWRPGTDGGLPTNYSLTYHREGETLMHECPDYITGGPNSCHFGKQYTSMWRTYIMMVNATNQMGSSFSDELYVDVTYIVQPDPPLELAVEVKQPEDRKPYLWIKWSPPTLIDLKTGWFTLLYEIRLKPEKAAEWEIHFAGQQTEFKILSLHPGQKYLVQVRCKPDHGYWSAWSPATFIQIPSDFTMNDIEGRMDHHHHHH

T2: murine prolactin receptor on cells (HEK293 and Ba/F cells stably transfected with murine PRLR) (mouse, UniProt Q08501 20-608)
T2 sequence (looked up): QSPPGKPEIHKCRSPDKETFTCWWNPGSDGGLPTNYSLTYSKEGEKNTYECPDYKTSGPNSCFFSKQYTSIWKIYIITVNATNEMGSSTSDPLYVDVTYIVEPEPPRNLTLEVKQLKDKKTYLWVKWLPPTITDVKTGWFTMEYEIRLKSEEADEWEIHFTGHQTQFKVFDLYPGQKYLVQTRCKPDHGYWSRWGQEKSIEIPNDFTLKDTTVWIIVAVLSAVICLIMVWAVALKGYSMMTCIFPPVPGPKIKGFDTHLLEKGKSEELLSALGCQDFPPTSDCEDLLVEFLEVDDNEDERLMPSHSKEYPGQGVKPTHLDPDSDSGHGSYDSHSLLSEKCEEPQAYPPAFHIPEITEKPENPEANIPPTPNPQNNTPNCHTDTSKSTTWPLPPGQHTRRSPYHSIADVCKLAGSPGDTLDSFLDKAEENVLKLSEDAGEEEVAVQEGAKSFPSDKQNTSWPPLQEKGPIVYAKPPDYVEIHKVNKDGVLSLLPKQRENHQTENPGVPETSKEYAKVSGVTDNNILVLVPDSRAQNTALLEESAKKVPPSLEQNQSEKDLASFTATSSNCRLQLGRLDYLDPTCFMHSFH

T3: human prolactin receptor on cells (T47D cells; HEK293 and Ba/F cells stably transfected with human PRLR) (human, UniProt P16471 25-622)
T3 sequence (looked up): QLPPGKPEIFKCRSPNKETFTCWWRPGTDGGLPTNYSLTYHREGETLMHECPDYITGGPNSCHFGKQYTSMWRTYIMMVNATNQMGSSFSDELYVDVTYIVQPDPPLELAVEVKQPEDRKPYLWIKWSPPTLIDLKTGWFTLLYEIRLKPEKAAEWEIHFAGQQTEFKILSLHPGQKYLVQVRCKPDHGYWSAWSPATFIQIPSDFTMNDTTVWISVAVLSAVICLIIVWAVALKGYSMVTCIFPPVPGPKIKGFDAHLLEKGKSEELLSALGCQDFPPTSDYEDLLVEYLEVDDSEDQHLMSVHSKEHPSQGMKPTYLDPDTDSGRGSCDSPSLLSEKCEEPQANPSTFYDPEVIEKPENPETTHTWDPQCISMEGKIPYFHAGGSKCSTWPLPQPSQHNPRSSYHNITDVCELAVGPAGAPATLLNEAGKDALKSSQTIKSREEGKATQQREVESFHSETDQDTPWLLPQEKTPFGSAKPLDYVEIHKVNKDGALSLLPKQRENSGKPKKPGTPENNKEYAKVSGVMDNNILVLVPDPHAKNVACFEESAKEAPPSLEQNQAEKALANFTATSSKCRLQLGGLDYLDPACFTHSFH

B1: 006-H08-53-27-0 (Fab, V domains shown)
VH: EVQLLESGGGLVQPGGSLRLSCAASGFTFDDYGMSWVRQAPGKGLEMVAVISYDGSNKYYADSVKGRFTISRDNSQNTLYLQMNSLRAEDTAVYYCASPLESPVAFDIWGQGTLVTVSS
VL: QSVLTQPPSASGTPGQRVTISCSGSNSNIGSNPVNWYQQLPGTAPKLLIYDNNKRPSGVPDRFSGSKSGTSASLAISGLRSEDEADYYCQSYDTGLSGWVFGGGTKLTVL
notes: Tested as E. coli supernatant; also called maturated 006-H08 Fab variant; copies: 1 + 1
B2: 006-H08-37-19-0 (Fab, V domains shown)
VH: B1 VH with M47W
VL: B1 VL with G98M
notes: as for B1
B3: 006-H08-32-2 (Fab, V domains shown)
VH: B1 VH with Y53F
VL: B1 VL with S25L, I29V, T94E, S97G
notes: as for B1
B4: 006-H08-33-16-0 (Fab, V domains shown)
VH: B1 VH with M47W
VL: B1 VL with T94E
notes: as for B1
B5: 006-H08-35-17-4 (Fab, V domains shown)
VH: B1 VH with M47W
VL: B1 VL with L96S
notes: as for B1
B6: 006-H08-14-6-0 (Fab, V domains shown)
VH: B1 VH with M47W
VL: B1 VL with N32S
notes: as for B1
B7: 006-H08-36-17-0 (Fab, V domains shown)
VH: B1 VH with M47W
VL: B1 VL with S97G
notes: as for B1
B8: 006-H08-65-33-2 (Fab, V domains shown)
VH: B1 VH with M47W
VL: B1 VL with S27D
notes: as for B1
B9: 006-H08-63-32-4 (Fab, V domains shown)
VH: B1 VH with M47W
VL: B1 VL with S25L
notes: as for B1
B10: 006-H08-35-17-1 (Fab, V domains shown)
VH: B1 VH with M47W
VL: B1 VL with L96A
notes: as for B1
B11: 006-H08-59-30-0 (Fab, V domains shown)
VH: B1 VH with M47W, Y53F
VL: B1 VL
notes: as for B1
B12: 006-H08-68-35-2 (Fab, V domains shown)
VH: B1 VH with M47W
VL: B1 VL with I29V
notes: as for B1
B13: 006-H08-13-6-1 (Fab, V domains shown)
VH: B1 VH with M47W
VL: B1 VL with S31G
notes: as for B1
B14: HE06.642 (antibody, IgG1, V domains shown)
VH: EVQLVESGGGLVQPGGSLRLSCAVSGFTFSSYGMSWVRQAPGKGLEWVATVSSGGTYTYYPDSVKGRFTISRDNSKNTLYLQMNSLRAEDTAVYYCARHRGNYYATYYYAMDYWGQGTLVTVSS
VL: DIVLTQSPDSLAVSLGERATINCKASKSVSTSGYTYMHWYQQKPGQPPKLLIYLASNRESGVPDRFSGSGSGTDFTLTISPVQAEDVATYYCQHSGELPPSFGQGTKLEIKR
B15: XHA06.642 (antibody, human IgG1, V domains shown)
VH: EVQLVESGGDLVKPGGSLKLSCAVSGFTFSSYGMSWVRQTPDKRLEWVATVSSGGTYTYYPDSVKGRFTISRDNAKNTLYLQMSSLKSEDSAMYYCARHRGNYYATYYYAMDYWGQGTSVTVSS
VL: DIVLTQSPASLAVSLGQGATISCRASKSVSTSGYTYMHWYQQKPGQPPKLLIYLASNLESGVPARFSGSGSGTDFTLNIHPVEEEDAATYYCQHSGELPPSFGGGTKLEIKR
B16: 005-C04 (human IgG1) (antibody, V domains shown)
VH: EVQLLESGGGLVQPGGSLRLSCAASGFTFSSYWMHWVRQAPGKGLEWVSDISSASSYTNYADSVKGRFTISRDNSKNTLYLQMNSLRAEDTAVYYCARGLDARRMDYWGQGTLVTVSS
VL: QSVLTQPPSASGTPGQRVTISCTGSSSNIGAGYVVHWYQQLPGTAPKLLIYRNNQRPSGVPDRFSGSKSGTSASLAISGLRSEDEADYYCAAWDDSLNGWLFGGGTKLTVLG
B17: 001-E06 (human IgG1) (antibody, V domains shown)
VH: QVELLESGGGLVQPGGSLRLSCAASGFTFSSYWMSWVRQAPGKGLEWVSSVSDTGTDTHYADSVKGRFTISRDNSKNTLYLQMNSLRAEDTAVYYCAKTPLAYSSGWYYFDYWGQGTLVTVSS
VL: DIVLTQPPSASGTPGQRVTISCSGSSSNIGSNTVNWYQQLPGTAPKLLIYRNYQRPSGVPDRFSGSKSGTSASLAISGLRSEDEADYYCQSYDSSLSGSVFGGGTKLTVLG
B18: 006-H08 (human IgG1) (antibody, V domains shown)
VH: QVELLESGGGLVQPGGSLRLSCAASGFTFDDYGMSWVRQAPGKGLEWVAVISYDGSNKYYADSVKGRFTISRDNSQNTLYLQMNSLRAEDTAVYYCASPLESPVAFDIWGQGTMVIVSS
VL: B17 VL with S26N, T33P, R51D, Y53N, Q54K, S94T, S95G, S99W
B19: 006-H08-29-1 (Fab, V domains shown)
VH: B1 VH with Y53F
VL: B1 VL with S25L, S27D, I29V, S31G, N32S, L96A, S97G, G98M
notes: as for B1
B20: 006-H08-39-7 (Fab, V domains shown)
VH: B1 VH with Y53F
VL: B1 VL with S25L, I29V, S31G, N32S, T94E, L96S, S97G, G98M
notes: as for B1
B21: 006-H08-12-2 (Fab, V domains shown)
VH: B1 VH with Y53F
VL: B1 VL with S25L, I29V, N32S, T94E, L96S, S97G, G98M
notes: as for B1
B22: 006-H08-48-5 (Fab, V domains shown)
VH: B1 VH with Y53F
VL: B1 VL with S25L, S27D, I29V, L96S, G98M
notes: as for B1
B23: 006-H08-15-5 (Fab, V domains shown)
VH: B1 VH with Y53F
VL: B1 VL with S25L, S31G, N32S, T94E
notes: as for B1

Each binder was assayed against T1, extracellular domain of human PRLR … (assay: HTRF competition: Fab-containing E. coli supernatant with biotinylated ECD of human PRLR and streptavidin-europium, then Alexa Fluor 647-labelled IgG1 006-H08 as competitor; signal at 665 nm after 5 to 65 min; lower signal than control Fab 006-H08 = improved binding [Figure 21]).
Description: Normalized E. coli-derived supernatants and 8 nM biotinylated extracellular domain of PRLR together with 1 nM Streptavidin-Europium were incubated in 96 well-microtiter plates for 30 min. Afterwards 200 mM KF and 50 nM Alexa Fluor 647-labeled IgG1 of 006-H08 were added. This mixture was incubated at room temperature for 5, 20, 35, 50, and 65 minutes, respectively. At the indicated time points, the absorption at 665 nm (and 620 nm) was measured using EnVision MultilabelReader (Perkin Elmer).

| Binder | binding result |
| --- | --- |
| B1 | binds |
| B2 | binds |
| B3 | binds |
| B4 | binds |
| B5 | binds |
| B6 | binds |
| B7 | binds |
| B8 | binds |
| B9 | binds |
| B10 | binds |
| B11 | binds |
| B12 | binds |
| B13 | binds |

The binders below were run against T2, murine prolactin receptor on cells … (assay: cell-based or functional assay).

| Binder | IC50, inhibition of prolactin-activated proliferation of Ba/F cells stably expressing the murine prolactin receptor | IC50, prolactin-activated luciferase reporter gene activity, HEK293 cells stably transfected with mPRLR |
| --- | --- | --- |
| B14 | > 30 µg/mL |  |
| B15 |  | > 50 µg/mL |
| B16 | 0.74 µg/mL | 0.45 µg/mL |
| B17 | 43.7 µg/mL |  |

The binders below were run against T3, human prolactin receptor on cells (T47D …) (assay: cell-based or functional assay).

| Binder | IC50, prolactin-activated luciferase reporter gene activity, HEK293 cells stably transfected with hPRLR |
| --- | --- |
| B14 | 0.63 µg/mL |
| B18 | 0.83 µg/mL |

The binders below were run against T1, extracellular domain of human PRLR … (assay: HTRF competition: Fab-containing E. coli supernatant with biotinylated ECD of human PRLR and streptavidin-europium, then Alexa Fluor 647-labelled IgG1 006-H08 as competitor; signal at 665 nm after 5 to 65 min; lower signal than control Fab 006-H08 = improved binding).

| Binder | binding result |
| --- | --- |
| B19 | binds |
| B20 | binds |
| B21 | binds |
| B22 | binds |
| B23 | binds |
